Molecular target: T1, 19-mer (SEQ ID NO:11) cleavage domain peptide
T1 chain: PRCGNPDVANYNFFPRKPK

B1: Proenzyme pro-MMP-9 (protein)
chain: APRQRQSTLVLFPGDLRTNLTDRQLAEEYLYRYGYTRVAEMRGESKSLGPALLLLQKQLSLPETGELDSATLKAMRTPRCGVPDLGRFQTFEGDLKWHHHNITYWIQNYSEDLPRAVIDDAFARAFALWSAVTPLTFTRVYSRDADIVIQFGVAEHGDGYPFDGKDGLLAHAFPPGPGIQGDAHFDDDELWSLGKGVVVPTRFGNADGAACHFPFIFEGRSYSACTTDGRSDGLPWCSTTANYDTDDRFGFCPSERLYTQDGNADGKPCQFPFIFQGQSYSACTTDGRSDGYRWCATTANYDRDKLFGFCPTRADSTVMGGNSAGELCVFPFTFLGKEYSTCTSEGRGDGRLWCATTSNFDSDKKWGFCPDQGYSLFLVAAHEFGHALGLDHSSVPEALMYPMYRFTEGPPLHKDDVNGIRHLYGPRPEPEPRPPTTTTPQPTAPPTVCPTGPPTVHPSERPTAGPTGPPSAGPTGPPTAGPSTATTVPLSPVDDACNVNIFDAIAEIGNQLYLFKDGKYWRFSEGRGSRPQGPFLIADKWPALPRKLDSVFEERLSKKLFFFSGRQVWVYTGASVLGPRRLDKLGLGADVAQVTGALRSGRGKMLLFSGRRLWRFDVKAQMVDPRSASEVDRMFPGVPLDTHDVFQYREKAYFCQDRFYWRVSSRSELNQVDQVGYVTYDILQCPED
For B1, which “conversion of pro-MMP-9 into prodomain and active enzyme by stromilysin (HPLC splicing assay)” value is on record?
Its value is “Titrating the standard splicing reaction with the 19-mer (SEQ ID NO:11) peptide prevents the conversion of pro-MMP-9 into the prodomain and the active enzyme. Splicing can be inhibited in a dose dependent manner with micromolar 19-mer”.
